Reference: patent publication US7314724B2, “Therapeutic applications of laminin and laminin-derived protein fragments” (University of Washington, priority 1996, dated 2008)

Target: T1, biotinylated Aβ (1-40) (Homo sapiens, UniProt P05067)
T1 construct: Aβ (1-40) was biotinylated according to the manufacturer's protocol (Pierce, Rockford, Ill.)
Assay: Aβ ligand blot of undigested and V8-, trypsin- or elastase-digested EHS laminin
Type: binding
Conditions: 2 μM biotinylated Aβ (1-40), SDS-PAGE under non-reducing conditions
Experimental: For these experiments, Aβ (1-40) was biotinylated according to the manufacturer's protocol (Pierce, Rockford, Ill.). For the ligand studies, intact EHS laminin was left undigested, or digested with V8 or trypsin (Sigma Chemical Company, St. Louis, Mo., USA). More specifically, 2 μg of trypsin or V8 protease in 2 μl of 50 MM Tris-HCl buffer (pH 8.0) were added to 50 μl of laminin (50 μg)(in the same buffer) and incubated overnight at 37° C. The next day, 10 μl of protease-digested laminin (or undigested laminin) was mixed with 10 μl of 2× sodium dodecyl sulfate polyacrylamide gel electrophoresis (SDS-PAGE) sample buffer, and heated for 5 minutes in a boiling water bath. SDS-PAGE was performed according to the method of Laemmli (Laemmli, U.K. Nature 227:680-685, 1970), or according to the method of Schägger and Jagow (Schägger and Jagow, Anal. Biochem. 166:368-379, 1987) using a Mini-Protean II electrophoresis system (Biorad) with precast 4-15% Tris-Glycine or 10-20% tricine polyacrylamide gels, respectively, and under non-reducing conditions. Electrophoresis occurred at 200V for 45 minutes along with pre-stained molecular weight standards. After SDS-PAGE (10-20% tricine or 4-15% Tris-Glycine gels) was performed as described above, the separated laminin and its fragments (total protein of 10 μg/lane) were transferred to polyvinylidine difluoride membrane (PVDF) using a Mini transblot electrophoresis transfer cell (Biorad, Hercules, Calif., U.S.A.). Electrotransfer was performed at 100V for 2 hours. Following transfer, membranes were rinsed with methanol and dried. The fragment(s) of laminin involved in binding to Aβ were then detected by using biotinylated-Aβ (1-40), as described above. Blots were probed for 2 hours with 2 μM biotinylated Aβ (1-40) in TTBS. The membranes were then rinsed three times (10 seconds each) with TTBS, probed for 30 minutes with strepavidin alkaline phosphatase conjugate (Vectastain), rinsed again (as described above), and followed by the addition of an alkaline phosphatase substrate solution (Vectastain). Following color development, the reaction was stopped by flushing the membranes with double distilled water. In the next set of studies, we determined whether small fragment(s) of laminin generated by elastase digestion would bind to Aβ. […] For these experiments, Aβ (1-40) was biotinylated according to the manufacturer's protocol (Pierce, Rockford, Ill.). For the ligand studies, intact EHS laminin was left undigested, or digested with elastase (Sigma Chemical Company, St. Louis, Mo., USA). For elastase digestion, 2 μg of elastase in 8 μl of 50 mM Tris-HCl buffer (pH 8.0) was added to 50 μl of laminin (50 μg)(in the same buffer) and incubated for 1.5 hours or 2.5 hours at 37° C. In addition, as a control, 2 μg of elastase in 50 μl of 50 mM Tris-HCl buffer (pH 8.0) was incubated for 2.5 hours at 37° C. Following the appropriate incubation times as described above, 10 μl of each of the above incubations were mixed with 10 μl of 2× SDS-PAGE electrophoresis sample buffer, and heated for 5 minutes in a boiling water bath. SDS-PAGE was performed according to the method of Laemmli (Laemmli, Nature 227:680-685, 1970) using a Mini-Protean II electrophoresis system with precast 4-15% Tris-Glycine polyacrylamide gels, and under non-reducing conditions. Electrophoresis occurred at 200V for 45 minutes along with pre-stained molecular weight standards (Biorad). After SDS-PAGE was performed as described above, the separated laminin fragments were transferred to PVDF using a Mini transblot electrophoresis transfer cell (Millipore, Bedford, Mass., U.S.A.). Electrotransfer was performed at 100V for 2 hours. Following transfer, membranes were rinsed with methanol, dried and cut into two equal parts which were used for Aβ ligand blotting, or Coomassie blue staining and subsequent amino acid sequencing. The fragment(s) of laminin involved in binding to Aβ were then detected by using biotinylated-Aβ (1-40), as described above. […]

T1 sequence (P05067 672-711 limits assumed): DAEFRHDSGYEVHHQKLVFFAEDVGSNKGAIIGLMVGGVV

laminin: Engelbreth-Holm-Swarm (EHS) mouse tumor laminin (Sigma); 850 kDa basement membrane glycoprotein of A, B1 and B2 chains
interaction with biotinylated Aβ (1-40) on ligand blot, in words: most prominent Aβ-interaction
